B1: Endoglucanase C, P0C2S3 (parent)
chain: MVSFKAGINLGGWISQYQVFSKEHFDTFITEKDIETIAEAGFDHVRLPFDYPIIESDDNVGEYKEDGLSYIDRCLEWCKKYNLGLVLDMHHAPGYRFQDFKTSTLFEDPNQQKRFVDIWRFLAKRYINEREHIAFELLNEVVEPDSTRWNKLMLEYIKAIREIDSTMWLYIGGNNYNSPDELKNLADIDDDYIVYNFHFYNPFFFTHQKAHWSESAMAYNRTVKYPGQYEGIEEFVKNNPKYSFMMELNNLKLNKELLRKDLKPAIEFREKKKCKLYCGEFGVIAIADLESRIKWHEDYISLLEEYDIGGAVWNYKKMDFEIYNEDRKPVSQELVNILARRKT

Variants of: B1
Conditions: Acetivibrio thermocellus, pH 7.2, structure 1CEC, whole UniProt chain shown; for Tm / change of melting temperature, mutant - wild type (higher = more stable): Thermal, DSC, Tris 20 mM, reversible: No
[1] = 25 °C, GdnHCl, CD, Tris 50 mM, reversible: yes

Variant | ddG of mutation (higher = less stable) [1] [kcal/mol] | denaturant midpoint (higher = more stable) [1] [M] | unfolding free energy [1] [kcal/mol] | Tm [°C] | change of melting temperature, mutant - wild type (higher = more stable) [°C]
A6C R340C | -1.73 | 2.61 | 8.03 | 73.4 | –
N220D T222A | – | – | – | 68.3 | -2.1
E333G | – | – | – | 69.4 | -1
N9D | – | – | – | 63.9 | -6.5
I293A | – | – | – | 67.6 | -2.8

Source: FireProtDB (doi:10.1016/s0301-4622(02)00027-3)
